{"source": "the DeepSol protein solubility set", "data": [{"experiment": "soluble on expression in E. coli; label from the status in PepcDB or PDB records", "values": [{"sequence": "SMQICDTYNQKHSLFNAMNRFIGAVNNMDQTVMVPSLLRDVPLSEPEIDEVSVEVGGSGGCLEERTTPAPSPGSANESFFAPSRDMYSHYVLLKSIRNDIEWGVLHQPSSPPAGSEESTWKPKDILVGLSHLESADAGEEDLEQQFHYHLRGLHTVLSKLTRKANILTNRYKQEIGFSNWGH", "soluble on expression in E. coli": "soluble"}, {"sequence": "MHGKRIALCASRKLDEMTTLIEKQGGTAIIRPAQGTVFSKGSELGEEMRTVIAMRPDWIVFTTGIGFEALLEAADREGMAAQWHRTIKEANVAARGYKTVTALKQIGVTPVAVSEDGTTKGLIAALYGHDFADKNVVVQLYGDTAPALKQFFLEQGALYTELLPYRHIAPDEETLATLYKEIVGREVDAVCFTSAMQVRFFFSFAREKKEIAPLLDAFRTDVVACAVGKVTKEALEEEGVDRVIAPEHERMGAMIVTLARYFGA", "soluble on expression in E. coli": "not soluble"}, {"sequence": "MAHRRKFGGGRGEAVAKAVGIKGSALPTVIDATAGLGRDAFVLAAIGCQVRLVERHPVVFLLLQDGLNRAYQDEEIGEMLQQNLHLLNVQHINELDPNSDYADVVYLDPMYPHKQKSALVKKEMRVFQHLVGADLDADELLLPALQLAKKRVVVKRPDYAEFLCGKQPHFSHETKNHRFDIYMGASQCLEHHHHHH", "soluble on expression in E. coli": "not soluble"}, {"sequence": "MGAFFMSVVSAFAGAAEACRPTGALQNVEVARVVDGDTVRLRDGRSVRLIGINAPELAHNGRTTEPFAEAAKQRLQALVSASDGRLALQPGRQARDHYGRTLAHLFDASGANLEARLLGEGLGYLVAVAPNTELTACQQAAERAARSANLGVWKRSPVLSLDRLAQSGFAVVRGRVLEVERNRGGIWLEMDGPLVLRIEPKVLKAFDAKRVMQMAGRSLEVRGWVVDRSRRGAVPAGKARWQMSVTDPAMLEWLPLEHHHHHH", "soluble on expression in E. coli": "not soluble"}, {"sequence": "MGKLNRRDVIKGLGMAAASLAAAQRGLQARAAPSRIVWSPYVVFLNANAKAFIVDTRTDQVVASLDTARGATLGSMTPDAKKVYVSGAGEGETRVVILDLENLRVAKVLETGNRPKHGLVSPDGRRVGVDHWALSGGKLRLTFIRTEDDTIEKVLDIPVTNQPKGVTSMHNAWSWDSRYFFSVDRVDDRLVVVDTADWSVRTFSAPSVPHYPVVSPDGKELWLVHEGNDRVRPGIAVYDLTRPDLPIVAQVEMPLIGEDAVEAHHGNFTQDGRYFMALNRGPGNNLRGREVAFFSPRTKRLVHRLTCASTGVGHAYNSPDGRRVIATNYGNNVITVIDLLGLRTLKDLVIGKGRMGHVVFTPDGRFAYLSNADGNLYKLDMRSLTVVKVIETGQTNGGGQVLNVWTNVFEELPRG", "soluble on expression in E. coli": "soluble"}, {"sequence": "MGSDKIHHHHHHMTERIDFTKSEQYTLSIRLSADGFSFSIYNPLTDNDFCFVPHPVNTGYSMTANLKDMLTKTEALKYPYKRVNILYDSPRFTPVPLELFEDEQMDTIFYHNFPKAKGNNEIVLCNVLGRSNVVILFAMDKHTHLLLTEHFPTARFFSTASPLTEYFARKSRLGNSRKLYTYIREQQMEVFCFDKGNLLLINSFPCKQTTDRVYYLLYVWQQLNYNQERDELHLTGILKDKEELLKELRNYLRQVFVISPKAEFNRSEISKIEEIPFDMQTLLLCE", "soluble on expression in E. coli": "not soluble"}, {"sequence": "MVYVAVLANIAGNLPALTAALSRIEEMREEGYEIEKYYILGNIVGLFPYPKEVIEVIKDLTKKENVKIIRGKYDQIIAMSDPHATDPGYIDKLELPGHVKKALKFTWEKLGHEGREYLRDLPIYLVDKIGGNEVFGVYGSPINPFDGEVLAEQPTSYYEAIMRPVKDYEMLIVASPMYPVDAMTRYGRVVCPGSVGFPPGKEHKATFALVDVDTLKPKFIEVEYDKKIIEERIRAEGLPEEIIKILYHGGRP", "soluble on expression in E. coli": "soluble"}, {"sequence": "MNGIHDVGGMDGFGKVMYVKEEEDIYFTHDWERLALGLVAGCMAQGLGMKAFDEFRIGIELMRPVDYLTSSYYGHWIATVAYNLVDTGVLDEKELDERTEVFSKKPDTKIPRREDPALVKLVEKALNDGLSPLREISASPRFKVGERIKTKNIHPTGHTRFPRYARDKYGVIDEVYGAHVFPDDAAHRKGENPQYLYRVRFEAEELWGYKQKDSVYIDLWESYMEPVSH", "soluble on expression in E. coli": "soluble"}, {"sequence": "MGSDKIHHHHHHMYYRKRFCVGRNNERRMKAMARDTGLDHLGAMRAFVRVVEMGSFSAVAKEMHVSTSTVARKITAIEEALGVALLHRSTHSVTLTEAGHIYLERAVTLIADLDDTLRVVAELNAQPSGPLKLTAPVAFGRRHLAPLIAPFLARYPTIQLDVRLTDNHNDLVAGGYDLDIHEGENYLDNLVVHRLSRNDSILCATPGYLDRCGRPATPDDLLHHNCLRYVHPEGDPRWELVRGDARHSVLPAGNLVTDHSELLLEATCAGLGIAEFEIWLVRDLLASGRLEAVLPRYRLHNKLTGEHIYIAYLANRRSSAKLRVLKDFLADQLAHIGELSEVELMKIRDAGA", "soluble on expression in E. coli": "not soluble"}, {"sequence": "MGSDKIHHHHHHMKEIDELTIKEYGVDSRILMERAGISVVLAMEEELGNLSDYRFLVLCGGGNNGGDGFVVARNLLGVVKDVLVVFLGKKKTPDCEYNYGLYKKFGGKVVEQFEPSILNEFDVVVDAIFGTGLRGEITGEYAEIINLVNKSGKVVVSVDVPSGIDSNTGKVLRTAVKADLTVTFGVPKIGHILFPGRDLTGKLKVANIGHPVHLINSINRYVITREMVRSLLPERPRDSHKGTYGKVLIIAGSRLYSGAPVLSGMGSLKVGTGLVKLAVPFPQNLIATSRFPELISVPIDTEKGFFSLQNLQECLELSKDVDVVAIGPGLGNNEHVREFVNEFLKTLEKPAVIDADAINVLDTSVLKERKSPAVLTPHPGEMARLVKKTVGDVKYNYELAEEFAKENDCVLVLKSATTIVTDGEKTLFNITGNTGLSKGGSGDVLTGMIAGFIAQGLSPLEASTVSVYLHGFAAELFEQDERGLTASELLRLIPEAIRRLKE", "soluble on expression in E. coli": "soluble"}, {"sequence": "MTIVAENLTKHLSNLSKRGPHRVLVGDLDYVGLPGKIYTPAEGNGLPAVVFAHDWMQDISRYHATLRHLASWGIVVAAPNTEKGISPNHRGFAADIETSLQVLTGVKLGAGNISVAPGRLGIVGHGMGAGAAVLAAADRPQIAAVAAIYPSQVSPSADVAARNVEAAGLVLGTEENAMFDFGNAAKLALEWKGPVAYREIDRASHQTLTENTLFKRVTGLGGTNTAARERIRGVVTGFLLHQLADQKKYSGFSEADATGKKVHSYWGEELQERASLTGDSKLTLFKS", "soluble on expression in E. coli": "not soluble"}, {"sequence": "MGSDKIHHHHHHMRKDDVVIVTCAITGAIHTPSMSPYLPVTPDQIVEEAVKAAEAGAGMVHIHARDPKDGRPTTDVEVFRYICREIKKQSDVVINVTTGGGGTLGIPVEERAKVVPALKPEIATFNMGSMNFAIHPLLKKYKEFKYDWEPEYLEMTRDIVFRNTFKDLEALSRIFKENDTKPELECYDIGQIYNTAFMFHEGYLEPPLRLQFIHGILGGIGTAVEDVLFMKQTADRLIGRENYTWSLVGAGRFQMPLGTLAVIMGGDVRVGLEDSLYIERGKLAKSNAEQVEKMVRIVKELGKRPATPDEVREILGLKGKERVNF", "soluble on expression in E. coli": "not soluble"}, {"sequence": "TPGDRTGTSKCRKAGCVYFGTPENKGFCTLCFIEY", "soluble on expression in E. coli": "soluble"}, {"sequence": "MSDPRAPRLCVLIDADNVPANYAEAIFEEIAALGEASVRRIYGDWSAMRLNAWAKKVAALGLVADQQFSNTKGKNASDIGLVISAMDFLHSGLFDGFVLVSSDSDFTRLAARIREQGLDVYGIGEKKTPEAFRMACKRFIYVENLGSDEPPAREPRPADEPQQPPAQRGREKEEPMKAIPLIAAAMRAIDPEGEWYSLGQIGQFITQANPDFDTRTYGSAKLSDLIKKISRFEVKPGPGGQLLARDIALEHHHHHH", "soluble on expression in E. coli": "not soluble"}, {"sequence": "MVLLLIVNKYWKVNDMKNEIQKNMDKYNPWHEDDFESYEDIARDVSLTTDKTFIEHYLLEVYSEENGHFDQENVHAMIEEIKNAI", "soluble on expression in E. coli": "not soluble"}, {"sequence": "KPGAMYRNSSKPAYTRREYISGIPGKKIAQFDMGNNGAGPTYPAQVELVVEKPVQIRHNALEAARVAANRYVQNSGAAANYKFRIRKFPFHVIRENKAAAAAAAAAAADGMRAPFGKPVGTAARVHGANHIFIAWVNPDPNVEEAWRRAKMKVTPTINIDSSPAGNA", "soluble on expression in E. coli": "soluble"}, {"sequence": "MTILAIDTSNYTLGIALLREDTVIAEYITYLKKNHSVRAMPAVHSLLNDCDMAPQDLSKIVVAKGPGSYTGVRIGVTLAKTLAWSLDIPISAVSSLETLAANGRHFDGLISPIFDARRGQVYTGLYQYKNGLLEQVVPDQNVMLADWLEMLKEKDRPVLFLGHDTSLHKQMIEDVLGTKGFIGTAAQHNPRPSELAFLGKEKEAADVHGLVPDYLRLAEAEAKWIESQKLEHHHHHH", "soluble on expression in E. coli": "not soluble"}, {"sequence": "MFPVNCYVLWDDTKEAVVIDPGCFYEEEKQALKKFILTNELTVKHLLNTHLHLDHIFGNPFMLKEFGLSAEANKADEFWIDEAPKQSRMFGFQLQEEPVPLGKYLHDGDIITFGHTKLEAIHVPGHSPGSLVYYCKEENCMFSGDVLFQGSIGRADLSGGNFDELIDHICSRLFVLPNETVVYPGHGAPTTIGMEKAENPFFR", "soluble on expression in E. coli": "not soluble"}, {"sequence": "MGSDKIHHHHHHMAEAGTLAVLVPEITIEELFTAQGADLSRRSPRQDMVDLNIKLLAEARELAKVSIIWQEVKVLGSQQQELYLEGGLTLRGSLLPKVLGPAESAVLFAMTIGEGIDERVKEYTHQGKTLEAFILDAAGSAILAKAAYHAISELAGLYKEKQLDTTFSLGPGHSYWKGLEDVRTIIDYLKGEQIGISLTDSNLMLPKKSIAMVMGVGSNLPDFKGKTHCDFCHLKGSCTMRELGVNNC", "soluble on expression in E. coli": "not soluble"}, {"sequence": "TEQTNVLVLCAGGGTSGLLANALNKAAEEYHVPVKAAAGGYGAHMDIMKEYQLIILAPQVASNYEDIKQDTDRLGIKLAKTQGAEYIKLTRDGQAALDFVQQQFEN", "soluble on expression in E. coli": "not soluble"}, {"sequence": "MGSDKIHHHHHHMKKSVMLLVCLLGLSACSTKFSYRFLDWAIGWEQEDYVTLDKTQQKAFDTLVEKMVFWHQSKELAHYVVQLKEVENLIKTNELTPLLWAEHVDIAKRHWFRVFEFAMPELLPIIMSLTDSQVKQILTKLREDEQALVKEFAGKSPEQLQKDADKRLQKQFEDWLGSVSAEQKSLIHQYNQQRLSTLDMWLEYRHEWLRQFEVALGQRADKVLLTERLTLLMTQPDELKSEQHKAFLRQNTEAFGTLLLAMNGSLSAKQSKHFYKKLGKLIQDLTELNQEALEKEFKSMKALST", "soluble on expression in E. coli": "not soluble"}]}]}
